Columns and labels:
mCerulean3-Bcl-XL = target: T1, mCerulean3-Bcl-XL (human, UniProt Q07817-1 1-233); test: FRET or BRET; FLIM-FRET in live MCF-7 cells: mCer3-Bcl-XL or mCer3-Bcl-2 stably expressed (donor), Venus-BH3 protein transiently expressed (acceptor); binding curves of FLIM-FRET efficiency against the Venus:mCer3 intensity ratio, 25 C; untreated, DMSO, 20 uM ABT-263 (18-24 h) or 1.25-20 uM A-1155463, A-1331852, ABT-263; R values interpolated at ratio 0.5 (Bcl-XL) or 0.25 (Bcl-2), ^VBad4E signal subtracted; settings: partners not purified
T1 construct: Bcl-XL, human; GGS linker between mCerulean3 and Bcl-XL; also called ^CBcl-XL; ^cBcl-XL; source: MCF-7 and BMK-DKO, stably transfected clones, in live cells; not shown: mCerulean3, N-terminal, kept
T1 sequence (Q07817 whole entry): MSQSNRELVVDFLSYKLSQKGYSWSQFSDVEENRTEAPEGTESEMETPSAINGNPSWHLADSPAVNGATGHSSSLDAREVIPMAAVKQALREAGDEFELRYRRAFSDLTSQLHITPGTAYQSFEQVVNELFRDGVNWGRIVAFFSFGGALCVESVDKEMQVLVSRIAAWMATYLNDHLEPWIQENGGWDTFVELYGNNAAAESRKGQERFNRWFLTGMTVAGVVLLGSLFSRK

mCerulean3-Bcl-2 = target: T2, mCerulean3-Bcl-2 (human, UniProt P10415 1-239); test: as above; settings: partners not purified
T2 construct: Bcl-2, human; GGS linker between mCerulean3 and Bcl-2; also called ^CBcl-2; ^cBcl-2; source: MCF-7, stably transfected clone, in live cells; not shown: mCerulean3, N-terminal, kept
T2 sequence (P10415 whole entry): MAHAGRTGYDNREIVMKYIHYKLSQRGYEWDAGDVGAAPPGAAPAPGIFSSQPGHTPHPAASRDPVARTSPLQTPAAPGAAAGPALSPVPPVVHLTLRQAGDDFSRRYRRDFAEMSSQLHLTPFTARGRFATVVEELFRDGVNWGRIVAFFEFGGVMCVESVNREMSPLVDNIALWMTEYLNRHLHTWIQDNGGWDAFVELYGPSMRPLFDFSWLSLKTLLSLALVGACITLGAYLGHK

[1] = target: T3, Bcl-XL single-cysteine mutant 152C, Alexa647-labelled (human, UniProt Q07817-1 1-233, Alexa 647-maleimide on the single cysteine at 152); test: FRET or BRET; purified proteins with liposomes, protein binding (FRET) and liposome permeabilization measured at the same time, ABT-263 titrated; settings: both partners purified
T3 sequence (Q07817 other isoform, or with tags, fused parts or gaps mutant): as the sequence (Q07817 whole entry) above, with V152C counted along it

[2] = target: T3, Bcl-XL single-cysteine mutant 152C, …; test: FRET or BRET; 4 nM Alexa568-labelled BimL or BimL-dCTS with increasing Alexa647-labelled Bcl-XL in samples containing mouse liver mitochondria; apparent Kd; settings: both partners purified
[3] = target: T3, Bcl-XL single-cysteine mutant 152C, …; test: FRET or BRET; purified Alexa568-labelled BH3 protein (10 nM) and Alexa647-labelled Bcl-XL (40 nM) with liposomes, ABT-263 titrated in; 37 C, 1 h; relative displacements, not absolute affinity; settings: both partners purified

Binder	R_(ABT-263), % of FRET signal left with 20 uM ABT-263 (mCerulean3-Bcl-XL)	R_(ABT-263), % of FRET signal left with 20 uM ABT-263 (mCerulean3-Bcl-2)	IC50 of ABT-263 for FRET of the pair [1]	Kd [2]	IC50 of ABT-263 for displacing the pair [3]
Venus-BimEL (natural protein, mouse, UniProt O54918-1 1-196, looked up, BimEL, mouse; GGS linker after Venus; also called ^VBimEL; ^vBimEL; source: MCF-7 and BMK-DKO, transiently transfected, in live cells; not shown: Venus, N-terminal, kept) MAKQPSDVSSECDREGGQLQPAERPPQLRPGAPTSLQTEPQGNPDGEGDRCPHGSPQGPLAPPASPGPFATRSPLFIFVRRSSLLSRSSSGYFSFDTDRSPAPMSCDKSTQTPSPPCQAFNHYLSAMASIRQSQEEPEDLRPEIRIAQELRRIGDEFNETYTRRVFANDYREAEDHPQMVILQLLRFIFRLVWRRH	86.3%	83.1%	–	–	–
Venus-BimEL-I146Y-L185E (natural protein, mouse, UniProt O54918-1 1-196, looked up, BimEL, mouse; also called ^vBimEL-I146Y-L185E; source: MCF-7, transiently transfected, in live cells; not shown: Venus, N-terminal, kept) MAKQPSDVSSECDREGGQLQPAERPPQLRPGAPTSLQTEPQGNPDGEGDRCPHGSPQGPLAPPASPGPFATRSPLFIFVRRSSLLSRSSSGYFSFDTDRSPAPMSCDKSTQTPSPPCQAFNHYLSAMASIRQSQEEPEDLRPEIRYAQELRRIGDEFNETYTRRVFANDYREAEDHPQMVILQLERFIFRLVWRRH	40%	36.9%	–	–	–
Venus-BimEL-CTS2A (natural protein, mouse, UniProt O54918-1 1-196, looked up, BimEL, mouse; also called ^VBim-CTS2A; ^vBimEL-CTS2A; source: MCF-7, transiently transfected, in live cells; not shown: Venus, N-terminal, kept) MAKQPSDVSSECDREGGQLQPAERPPQLRPGAPTSLQTEPQGNPDGEGDRCPHGSPQGPLAPPASPGPFATRSPLFIFVRRSSLLSRSSSGYFSFDTDRSPAPMSCDKSTQTPSPPCQAFNHYLSAMASIRQSQEEPEDLRPEIRIAQELRRIGDEFNETYTRRVFANDYREAEDHPQMVILQLLAFIFALVWRRH	88.8%	80.7%	–	–	–
Venus-BimEL-I188E (natural protein, mouse, UniProt O54918-1 1-196, looked up, BimEL, mouse; also called ^VBimEL-I188E; ^vBimEL-I188E; source: MCF-7, transiently transfected, in live cells; not shown: Venus, N-terminal, kept) MAKQPSDVSSECDREGGQLQPAERPPQLRPGAPTSLQTEPQGNPDGEGDRCPHGSPQGPLAPPASPGPFATRSPLFIFVRRSSLLSRSSSGYFSFDTDRSPAPMSCDKSTQTPSPPCQAFNHYLSAMASIRQSQEEPEDLRPEIRIAQELRRIGDEFNETYTRRVFANDYREAEDHPQMVILQLLRFEFRLVWRRH	51%	63%	–	–	–
Venus-BimEL-I181E (natural protein, mouse, UniProt O54918-1 1-196, looked up, BimEL, mouse; also called ^vBimEL-I181E; source: MCF-7, transiently transfected, in live cells; not shown: Venus, N-terminal, kept) MAKQPSDVSSECDREGGQLQPAERPPQLRPGAPTSLQTEPQGNPDGEGDRCPHGSPQGPLAPPASPGPFATRSPLFIFVRRSSLLSRSSSGYFSFDTDRSPAPMSCDKSTQTPSPPCQAFNHYLSAMASIRQSQEEPEDLRPEIRIAQELRRIGDEFNETYTRRVFANDYREAEDHPQMVELQLLRFIFRLVWRRH	63.9%	73.3%	–	–	–
Venus-BimEL-V192E (natural protein, mouse, UniProt O54918-1 1-196, looked up, BimEL, mouse; also called ^VBimEL-V192E; ^vBimEL-V192E; source: MCF-7, transiently transfected, in live cells; not shown: Venus, N-terminal, kept) MAKQPSDVSSECDREGGQLQPAERPPQLRPGAPTSLQTEPQGNPDGEGDRCPHGSPQGPLAPPASPGPFATRSPLFIFVRRSSLLSRSSSGYFSFDTDRSPAPMSCDKSTQTPSPPCQAFNHYLSAMASIRQSQEEPEDLRPEIRIAQELRRIGDEFNETYTRRVFANDYREAEDHPQMVILQLLRFIFRLEWRRH	70.1%	64.8%	–	–	–
Venus-BimEL-L185E (natural protein, mouse, UniProt O54918-1 1-196, looked up, BimEL, mouse; also called ^VBimEL-L185E; ^vBimEL-L185E; source: MCF-7, transiently transfected, in live cells; not shown: Venus, N-terminal, kept) MAKQPSDVSSECDREGGQLQPAERPPQLRPGAPTSLQTEPQGNPDGEGDRCPHGSPQGPLAPPASPGPFATRSPLFIFVRRSSLLSRSSSGYFSFDTDRSPAPMSCDKSTQTPSPPCQAFNHYLSAMASIRQSQEEPEDLRPEIRIAQELRRIGDEFNETYTRRVFANDYREAEDHPQMVILQLERFIFRLVWRRH	41.9%	51%	–	–	–
Venus-BimEL-I146Y (natural protein, mouse, UniProt O54918-1 1-196, looked up, BimEL, mouse; also called ^vBimEL-I146Y; source: MCF-7, transiently transfected, in live cells; not shown: Venus, N-terminal, kept) MAKQPSDVSSECDREGGQLQPAERPPQLRPGAPTSLQTEPQGNPDGEGDRCPHGSPQGPLAPPASPGPFATRSPLFIFVRRSSLLSRSSSGYFSFDTDRSPAPMSCDKSTQTPSPPCQAFNHYLSAMASIRQSQEEPEDLRPEIRYAQELRRIGDEFNETYTRRVFANDYREAEDHPQMVILQLLRFIFRLVWRRH	88.7%	65.3%	–	–	–
BimL single-cysteine mutant 41C, Alexa568-labelled (natural protein, Alexa 568-maleimide on the single cysteine at 41) MAKQPSDVSSECDREGGQLQPAERPPQLRPGAPTSLQTEPCDRSPAPMSCDKSTQTPSPPCQAFNHYLSAMASIRQSQEEPEDLRPEIRIAQELRRIGDEFNETYTRRVFANDYREAEDHPQMVILQLLRFIFRLVWRRH	–	–	> 700 nM	3 ± 1 nM	> 4000 nM
BimL-dCTS, Alexa568-labelled (domain or fragment, Alexa568 on a single cysteine) MAKQPSDVSSECDREGGQLQPAERPPQLRPGAPTSLQTEPCDRSPAPMSCDKSTQTPSPPCQAFNHYLSAMASIRQSQEEPEDLRPEIRIAQELRRIGDEFNETYTRRVFANDYREAEDHP	–	–	–	35 ± 5 nM	~200 nM
